One data set has as its system C. difficile. The data set is described as follows: Mouse model for parenteral ampicillin-induced disruption of colonization resistance against C. difficile. The class given is in vivo, C57BL/6 mice. Particulars: single daily dose, 200 mg/kg intraperitoneal, 3 days, 5×10^3 spores 24 hours after last dose. The procedure: FIGS. 7A-7C. Mouse model for parenteral ampicillin-induced dysbiosis and the disruption of colonization resistance against C. difficile. FIG. 7A. A 3-day intraperitoneal ampicillin administration regimen is evaluated for its effects in abolishing colonization resistance against 5×10^3 spores of C. difficile at 24 hours after the last ampicillin dose. C. difficile density in feces is evaluated 24 hours after the infection. FIG. 7B. […] FIG. 7C. Dose-dependency of single daily intraperitoneal ampicillin injections in the disruption of colonization resistance against C. difficile.
L. lactis spTEM1 protects the diversity and composition of gut the microbiota in an ampicillin-induced dysbiosis murine model. To test the efficacy of L. lactis spTEM1 in preventing ampicillin-induced dysbiosis, a mouse model was developed that utilizes susceptibility to C. difficile infection as an endpoint indication of gut dysbiosis. […] Based on this antibiotic regimen, the inventors devised a probiotic intervention aimed at populating the mouse gut with L. lactis spTEM1 while ampicillin circulates in the body (FIG. 3A). […]
C. difficile infection. […] The number of colony forming units (CFU) was counted using TCCFA plates supplemented with 50 μg/mL Erythromycin at 37° C. under anaerobic conditions, as previously reported.^26

A short description of data set [1]: Nitrocefin hydrolysis assay for β-lactamase activity in culture supernatants. It is filed as biochemical. Particulars: 0.1 mM nitrocefin, absorbance at 486 nm. An excerpt: A L. lactis strain was generated that is able to inactivate β-lactam antibiotics in its surroundings by secreting a split enzyme that is encoded in a two-gene biosynthesis pathway. By splitting β-lactam degradation into a genetically unlinked trait the selective advantage conferred upon a single locus was removed, thereby limiting the possible spread of the engineered trait in the population through a single HGT event. To achieve this, a heterodimeric version of the TEM1 β-lactamase (spTEM1) that regains its activity when reconstituted in the extracellular environment was generated.
β-lactamase assay. Nitrocefin (BioVision) was dissolved in DMSO to make a 1 mM stock. It was added to samples bacterial culture supernatant in a clear-bottom 96-well plate to a final concentration of 0.1 mM. The plate was placed in a spectrophotometer SpectraMaX™ M5 (Molecular Devices) to read absorbance at 486 nm over time.

Data set [2] has as its target T1, β lactamase fragment (BLF) 2 of TEM1 β-lactamase, without SpyCatcher.
T1 chain: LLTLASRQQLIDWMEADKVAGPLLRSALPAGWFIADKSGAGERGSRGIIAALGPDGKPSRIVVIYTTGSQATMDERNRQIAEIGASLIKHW

A further data set has as its system E. coli. The data set is described as follows: Cell density-dependent survival/growth on ampicillin, E. coli expressing spTEM1 elements. It is filed as cell-based, Escherichia coli. The source says: FIGS. 2A-2B. […] FIG. 2A. Cell density-dependent growth on ampicillin. β-lactamases in the periplasm of Gram-negative bacteria i.e. E. coli, confer selective advantage to single-cells. Survival to ampicillin is an emergent property of the of the L. lactis spTEM1 population and not of single cells. Diffusion from the cell surface precludes protection to the producer cell when the population density is low. FIG. 2B. Estimation of the ampicillin survival density threshold in prototypical Gram-negative and Gram-positive strains expressing elements of the spTEM1 system.
The spTEM1 β-lactamase system is not amenable to HGT. Stable acquisition of a new genetic trait by HGT requires both the physical mobilization of DNA into the recipient cell and that the expression of the newly obtained genetic material provides enough selective advantage to outcompete the rest of the population. While encoding the spTEM1 β-lactamase system in separate genetic loci reduces the likelihood of transfer to a single recipient cell, the scenario of simultaneous acquisition of the two β-lactamase fragments cannot be completely ruled out. The inventors investigated whether stable acquisition of the spTEM1 β-lactamase genes to a Gram-negative bacterium confers a fitness advantage in the presence of ampicillin.
Bacterial strains. […]

“Also recorded” adds a separate entry of the source.

Turning to `CC1(C)S[C@@H]2[C@H](NC(=O)[C@H](N)c3ccccc3)C(=O)N2[C@H]1C(=O)O` [ampicillin], in the data set on C. difficile, the “disruption of colonization resistance against C. difficile” value is “sufficient to abrogate colonization resistance; also recorded: enough to sensitize the mouse gut to robust C. difficile colonization”.

B1: ST-BLF-1: SpyTag fused to TEM1 β-lactamase fragment BLF1 with usp45 secretion signal (SEQ ID NO: 4) (protein)
chain: MKKKIISAILMSTVILSAAAPLSGVYAAHIVMVDAYKPTKGGGGSGGGGSMHPETLVKVKDAEDQLGARVGYIELDLNSGKILESFRPEERFPMMSTFKVLLCGAVLSRIDAGQEQLGRRIHYSQNDLVEYSPVTEKHLTDGMTVRELCSAAITMSDNTAANLLLTTIGGPKELTAFLHNMGDHVTRLDRWEPELNEAIPNDERDTTTPVAMATTLRKLLTG
For the molecule B1, in data set [1], the “β-lactamase activity (nitrocefin hydrolysis)” value is “do not display β-lactamase activity”.

B2: β lactamase fragment (BLF) 1 of TEM1 β-lactamase, without SpyTag (protein)
chain: MHPETLVKVKDAEDQLGARVGYIELDLNSGKILESFRPEERFPMMSTFKVLLCGAVLSRIDAGQEQLGRRIHYSQNDLVEYSPVTEKHLTDGMTVRELCSAAITMSDNTAANLLLTTIGGPKELTAFLHNMGDHVTRLDRWEPELNEAIPNDERDTTTPVAMATTLRKLLTG
With B2, the “β-lactamase activity in culture supernatants (nitrocefin)” value in data set [2] is “slow in reconstituting and show minimal β-lactamase activity”.

B3: TEM1 β-lactamase: Intact TEM1 β-lactamase with periplasmic localization in E. coli (protein, UniProt P62593 24-286, looked up)
Beta-lactamase TEM: HPETLVKVKDAEDQLGARVGYIELDLNSGKILESFRPEERFPMMSTFKVLLCGAVLSRVDAGQEQLGRRIHYSQNDLVEYSPVTEKHLTDGMTVRELCSAAITMSDNTAANLLLTTIGGPKELTAFLHNMGDHVTRLDRWEPELNEAIPNDERDTTMPAAMATTLRKLLTGELLTLASRQQLIDWMEADKVAGPLLRSALPAGWFIADKSGAGERGSRGIIAALGPDGKPSRIVVIYTTGSQATMDERNRQIAEIGASLIKHW
Consider B3, for which the “growth in ampicillin as single colonies” value in the data set with E. coli is listed as “enables the growth in ampicillin as single colonies”.
